Source: patent US20230227520A1 (MAX PLANCK GESELLSCHAFT ZUR F RDERUNG DER WISSENSCHAFTEN E V, published 2023)
Read-outs that look alike come from different tables or passages of the source.

How the values were obtained:
[1] = biological target: T1, G-CSFR on NFS-60 cells (murine myeloblastic cell line) (mouse, UniProt P40223 26-837); test: cell-based or functional assay
T1 sequence (looked up): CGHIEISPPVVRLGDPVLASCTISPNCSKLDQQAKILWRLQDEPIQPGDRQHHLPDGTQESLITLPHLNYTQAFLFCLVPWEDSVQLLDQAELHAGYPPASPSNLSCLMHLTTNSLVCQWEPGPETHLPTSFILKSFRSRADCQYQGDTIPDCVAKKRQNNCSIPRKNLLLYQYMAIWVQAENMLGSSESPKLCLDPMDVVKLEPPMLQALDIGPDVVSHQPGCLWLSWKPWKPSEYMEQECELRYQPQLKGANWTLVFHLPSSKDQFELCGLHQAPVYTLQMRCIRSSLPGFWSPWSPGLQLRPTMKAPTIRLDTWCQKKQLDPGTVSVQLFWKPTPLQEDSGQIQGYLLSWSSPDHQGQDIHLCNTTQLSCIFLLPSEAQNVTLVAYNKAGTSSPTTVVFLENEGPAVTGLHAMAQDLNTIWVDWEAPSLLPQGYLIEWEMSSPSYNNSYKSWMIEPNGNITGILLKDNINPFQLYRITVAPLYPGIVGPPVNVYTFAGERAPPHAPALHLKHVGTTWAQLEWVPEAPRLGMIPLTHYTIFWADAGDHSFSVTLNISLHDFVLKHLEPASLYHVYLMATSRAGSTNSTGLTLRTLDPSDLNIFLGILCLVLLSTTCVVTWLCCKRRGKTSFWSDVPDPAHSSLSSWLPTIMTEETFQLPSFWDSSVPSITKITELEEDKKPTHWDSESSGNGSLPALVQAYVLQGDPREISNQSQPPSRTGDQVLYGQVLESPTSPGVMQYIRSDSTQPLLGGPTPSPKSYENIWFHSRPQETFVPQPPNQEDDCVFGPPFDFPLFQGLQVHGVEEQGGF

[2] = biological target: T1, G-CSFR on NFS-60 cells (murine …); test: cell-based or functional assay; remark: listed apart in the source
[3] = biological target: T2, G-CSF Receptor (G-CSFR) (R&D systems 381-GR-050/CF), recombinant human (human, UniProt Q99062 25-627, limits assumed); test: SPR, Biacore X100 single-cycle kinetics, G-CSFR amine-coupled on CM5, 1:1 binding model
T2 construct: Bought protein, amine-coupled to a CM5 chip; also called rhG-CSFR; human G-CSF receptor
T2 sequence (looked up): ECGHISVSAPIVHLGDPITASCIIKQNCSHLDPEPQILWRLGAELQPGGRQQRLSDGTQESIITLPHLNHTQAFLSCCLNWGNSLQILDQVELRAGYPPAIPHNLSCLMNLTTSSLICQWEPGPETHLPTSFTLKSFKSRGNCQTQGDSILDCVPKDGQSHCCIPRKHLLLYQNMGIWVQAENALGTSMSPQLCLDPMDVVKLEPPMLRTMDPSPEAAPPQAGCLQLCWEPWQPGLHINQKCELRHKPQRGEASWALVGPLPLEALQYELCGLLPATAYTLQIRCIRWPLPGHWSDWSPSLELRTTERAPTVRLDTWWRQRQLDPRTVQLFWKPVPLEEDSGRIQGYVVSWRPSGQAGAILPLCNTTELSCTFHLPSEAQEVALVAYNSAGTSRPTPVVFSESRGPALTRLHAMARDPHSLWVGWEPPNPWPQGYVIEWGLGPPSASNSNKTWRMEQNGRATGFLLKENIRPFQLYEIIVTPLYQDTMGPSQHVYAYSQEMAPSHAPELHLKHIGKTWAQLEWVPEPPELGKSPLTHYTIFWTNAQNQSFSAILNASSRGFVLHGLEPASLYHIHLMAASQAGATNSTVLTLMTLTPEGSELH
Experimental: To test whether the grafted epitope residues mediate binding of the designs to the G-CSF receptor, the inventors also performed SPR measurements for the Moevan and diSohair2 initial design templates (Moevan_control and diSohair_control, respectively), and no binding was observed (FIG. 20C,F).
Single-cycle kinetics experiments were performed on a Biacore X100 system (GE Healthcare Life Sciences). G-CSF Receptor (G-CSFR) (R&D systems 381-GR-050/CF) was diluted to 50 μg/ml in 10 mM acetate buffer pH 5.0 and immobilized on the surface of a CM5 sensor chip (GE Healthcare 29149604) using standard amine coupling chemistry. The designs and rhG-CSF (USP RS Filgrastim, Sigma-Aldrich 1270435) were diluted in running buffer (10 mM HEPES, 150 mM NaCl, 3.4 mM EDTA, 0.005% v/v Tween-20). Analyses were conducted at 25° C. at a flow rate of 30 μl/min. Five sequential 10-fold increasing concentrations of the sample solution (for the designs from 0.5 nM to 50 μM, and for rhG-CSF from 0.05 to 500 nM) were injected over the functionalized sensor chip surface for 180 s, followed by a 180 s dissociation with running buffer. At the end of each run, the sensor surface was regenerated with a 240 s injection of 10 mM glycine-HCl pH 2.0. Each experiment was performed two times for rhG-CSF, Boskar3, Boskar4, diSohair2, Moevan, and Moevan_t2. Association rate (ka), dissociation rate (kd), and equilibrium dissociation (Kd) constants were initially obtained by global fitting of the experimental reference-subtracted data to a 1:1 interaction model using the Biacore X100 evaluation software (v.2.0.1). To evaluate if a kinetics model that depends on double the analyte stoichiometry improves the goodness of fit to the data, the following rate integral was used: […]

[4] = biological target: T2, G-CSF Receptor (G-CSFR) (R&D systems …); test: SPR (Biacore), G-CSFR immobilised on the chip, diSohair2 250 nM - 4000 nM as analyte, five traces with binding model fit [panel B]
[5] = biological target: T2, G-CSF Receptor (G-CSFR) (R&D systems …); test: SPR (Biacore), G-CSFR immobilised on the chip, Moevan_t2 2 nM - 32 nM as analyte, five traces with binding model fit [panel E]

B1: moevan_st2 (designed binder)
chain: EAAAAARDESAYLKLQEQMRKIDADAAALSETRTIEELDTFKLDVADFVTTVVQLAEELEHRFGRNRRGRTEIYKIVKEVDRKLLDLTDAVLAKEKKGEDILNMVAEIKALLINIYKGGGGSSEAAAAARDESAYLKLQEQMRKIDADAAALSETRTIEELDTFKLDVADFVTTVVQLAEELEHRFGRNRRGRTEIYKIVKEVDRKLLDLTDAVLAKEKKGEDILNMVAEIKALLINIYK
NFS-60 EC50 (ng/mL), proliferation of NFS-60 cells [1]: 8.89 ng/mL

B2: Disohair_1 (designed binder)
chain: MTSDYIIEQIQRKQEEARLKVEEMERKLEEVKEASKRGVSSDQLLNLILDLADIITTLIQIIEESNEAIKELIKNQ
NFS-60 EC50 (ng/mL), proliferation of NFS-60 cells [2]: 2380 ng/mL

B3: Disohair_2 (designed binder)
chain: MTSDYIIEQIQRKQEEARLKVEEQERKLEAVKEASKRGVSSDQLLNLILDLADIITTLIQIIEESNEAIKELIKNQ
notes: Expressed with an N-terminal hexa-His-tag and thrombin site
NFS-60 EC50 (ng/mL), proliferation of NFS-60 cells [2]: 396 ng/mL | Kd [3]: 4500 nM | koff [3]: 0.0095 s⁻¹ | kon [3]: 2100 M⁻¹ s⁻¹ | Kd [4]: 4550 nM | koff [4]: 0.00949 s⁻¹ | kon [4]: 2080 M⁻¹ s⁻¹

B4: Boskar_1 (designed binder)
chain: AALAAELAEIYKGLAEYQARLQSLEGISPELGPALDALRLDVADFATTLAQAMEEKKTNLPQSFLLKALEQIRKIQADAAALREKLAATYTGTDRAAAAVEIAAQLEAFLEKAYEILRHLAAA
NFS-60 EC50 (ng/mL), proliferation of NFS-60 cells [2]: 2170 ng/mL

B5: boskar4_15rl (designed binder)
chain: AALAAALAEIYKGLAEYQARLKSLEGISPELGPALDALRLDMADFATTMAQAMEGGGGSGGGGSGGGGSQSFLLKALEQIRKIQADAAALREKLAATYKGNDRAAAAVEIAAQLEAFLEKAYQILRHLAAA
NFS-60 EC50 (ng/mL), proliferation of NFS-60 cells [1]: 48.5 ng/mL

B6: Sohair (designed binder)
chain: MTSDYIIEQIQRKQEEARLKVEEMERKLEAVKEASKRGVSSDQLLNLILDLADIITTLIQIIEESNEAIKELIKNQKGPTSDYIIEQIQRDQEEARKKVEEAEERLERVKEASKRGVSSDQLLDLIRELAEIIEELIRIIRRSNEAIKELIKNQ
NFS-60 EC50 (ng/mL), proliferation of NFS-60 cells [2]: 5050 ng/mL

B7: boskar4_t2 (designed binder)
chain: AALAAALAEIYKGLAEYQARLKSLEGISPELGPALDALRLDMADFATTMAQAMEEGLDSLPQSFLLKALEQIRKIQADAAALREKLAATYKGNDRAAAAVEIAAQLEAFLEKAYQILRHLAAAGGGGSSGGGGSSGGGGSSGGGGSSAALAAALAEIYKGLAEYQARLKSLEGISPELGPALDALRLDMADFATTMAQAMEEGLDSLPQSFLLKALEQIRKIQADAAALREKLAATYKGNDRAAAAVEIAAQLEAFLEKAYQILRHLAAA
NFS-60 EC50 (ng/mL), proliferation of NFS-60 cells [1]: 4.2 ng/mL

B8: sohair2_15r (designed binder)
chain: MTSDYIIEQIQRKQEEARLKVEEQERKLEAVKEASKRGVSSDQLLNLILDLADIITTLIQIIEESNEAIKELIKNQGGGGSGGGGSGGGGSDYIIEQIQRKQEEARLKVEEQERKLEAVKEASKRGVSSDQLLNLILDLADIITTLIQIIEESNEAIKELIKNQ
NFS-60 EC50 (ng/mL), proliferation of NFS-60 cells [1]: 228 ng/mL

B9: Moevan_t2 (designed binder)
chain: EAAAAARDESAYLKLQEQMRKIDADAAALSETRTIEELDTFKLDVADFVTTVVQLAEELEHRFGRNRRGRTEIYKIVKEVDRKLLDLTDAVLAKEKKGEDILNMVAEIKALLINIYKGGGGSSGGGGSSGGGGSSGGGGSSEAAAAARDESAYLKLQEQMRKIDADAAALSETRTIEELDTFKLDVADFVTTVVQLAEELEHRFGRNRRGRTEIYKIVKEVDRKLLDLTDAVLAKEKKGEDILNMVAEIKALLINIYK
notes: Tandem fusion of two Moevan copies joined by a 24 amino acid GS linker
NFS-60 EC50 (ng/mL), proliferation of NFS-60 cells [1]: 47.1 ng/mL | Kd [3]: 1.1 nM | koff [3]: 0.0003 s⁻¹ | kon [3]: 310000 M⁻¹ s⁻¹ | Kd [5]: 1.2 nM | koff [5]: 0.00036 s⁻¹ | kon [5]: 300000 M⁻¹ s⁻¹

B10: boskar4_st2 (designed binder)
chain: AALAAALAEIYKGLAEYQARLKSLEGISPELGPALDALRLDMADFATTMAQAMEEGLDSLPQSFLLKALEQIRKIQADAAALREKLAATYKGNDRAAAAVEIAAQLEAFLEKAYQILRHLAAAGGGGSSAALAAALAEIYKGLAEYQARLKSLEGISPELGPALDALRLDMADFATTMAQAMEEGLDSLPQSFLLKALEQIRKIQADAAALREKLAATYKGNDRAAAAVEIAAQLEAFLEKAYQILRHLAAA
NFS-60 EC50 (ng/mL), proliferation of NFS-60 cells [1]: 0.202 ng/mL

B11: Boskar_2 (designed binder)
chain: AALAAELAEIMKGLQEYQARLKSLEGISPELGPALDALRLDMADFATTMAQMMEENPSDLPQSFLLKALEQIRKIQADAAALREKLAATYPNSQRAAAAVEIAAQLEAFLEKAYQILRHLAAA
NFS-60 EC50 (ng/mL), proliferation of NFS-60 cells [2]: 3220 ng/mL

B12: bika1 (designed binder)
chain: SKEVLEQSLFLKLDEQVRKLLADIHAIKIDRITGNMDKQKLDTAYLDVADIETTLYQLIEVSH
NFS-60 EC50 (ng/mL), proliferation of NFS-60 cells [1]: 63 ng/mL

B13: bika2 (designed binder)
chain: SKEVLEQSLFLKLDEQVRKLLADIHAIKIDRITGNMDKQKLDTLYLDVADIETTLYQLIEVSH
NFS-60 EC50 (ng/mL), proliferation of NFS-60 cells [1]: 98 ng/mL
